Results from patent US20240301086A1 (APTEVO RESEARCH AND DEVELOPMENT, published 2024).

What was measured:
[1] = target: T1, Human PSMA ECD-AFH (TSC033), recombinant dimeric PSMA ECD (human, UniProt Q04609 44-750); assay: SPR (Biacore T200), human PSMA dimer ECD 10X His (TSC033), 1:1 fit
T1 construct: SEC-purified dimer; also called HuPSMA-AFH; Avi-His-Human PSMA ECD

[2] = target: T2, recombinant human FcRn/b2M complex (human, UniProt P55899 24-297; P61769 21-119, limits assumed); assay: SPR at pH 6.0, hFcRn/b2M amine-coupled, construct 1-81 nM as analyte, two-state reaction model fit
T2 construct: also called hFcRn/b2M; neonatal Fc receptor
T2 sequence (P55899 24-297 limits assumed, chain 1 of 2): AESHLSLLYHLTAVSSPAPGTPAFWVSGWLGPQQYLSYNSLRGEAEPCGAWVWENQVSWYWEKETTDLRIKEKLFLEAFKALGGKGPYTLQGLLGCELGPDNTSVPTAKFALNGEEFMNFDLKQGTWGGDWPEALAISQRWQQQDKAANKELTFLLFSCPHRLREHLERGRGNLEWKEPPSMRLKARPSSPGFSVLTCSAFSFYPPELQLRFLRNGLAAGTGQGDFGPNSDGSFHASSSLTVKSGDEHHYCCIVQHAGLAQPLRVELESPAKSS
T2 sequence (P61769 21-119 limits assumed, chain 2 of 2): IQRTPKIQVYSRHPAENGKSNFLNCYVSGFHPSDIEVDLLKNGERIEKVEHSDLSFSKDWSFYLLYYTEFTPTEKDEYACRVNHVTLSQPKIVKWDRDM
Procedure: (§1) Recombinant FcRn/b2M protein was generated via transient transfection of HEK-293 cells with a bi-cistronic vector containing the genes for both FcRn and […]. The complex was purified using IMAC chromatography and subsequently buffer exchanged into PBS buffer after verifying purity of the IMAC eluate by analytical SEC. Purified hFcRn/b2M at 5 μg/ml in 10 mM sodium acetate (pH 5.0) was immobilized on a CM5 chip by direct amine coupling chemistry to a level of ˜400 RU. A reference flow cell was left blank.
(§2) Different concentrations of the Fc variant protein (1-81 nM by 3-fold dilutions in HBS-EP+ with 0.2% BSA running buffer at pH 6.0) including running buffer as blank were injected in randomized order at 30 μL/min for 180 seconds followed by a 180 second dissociation period. Optimal regeneration was achieved by two injections of HBS-EP+ with 0.2% BSA at pH 7.5 at a flow rate of […] for 30 seconds followed by running buffer stabilization for 1 minute.
(§3) Sensorgrams obtained from kinetic SPR measurements were analyzed by the double subtraction method. […] Buffer reference was subtracted from analyte binding responses, and the final double-referenced data were analyzed with Biacore T200 Evaluation software (2.0, GE), globally fitting data to derive kinetic parameters. […]

[3] = target: T3, mIgG Fc-human PSMA ECD (human); assay: SPR (Biacore T200), bispecific amine-coupled, mFc-PSMA dimer 1-81 nM as analyte, 1:1 fit
T3 construct: Called PSMA dimer in the SPR method; also called mFc-Hu PSMA ECD; murine Fc-tagged human PSMA ECD
Procedure: (§4) SPR studies were performed on a subset of bispecific constructs binding to Human and cynomolgus primate PSMA ectodomain (ECD) fused to the c-terminus of a murine IgG1 Fc region. These experiments were conducted at 25° C. in dPBS (Gibco, 14040-133) with 0.2% BSA buffer on a Biacore T200 system. Bispecific constructs were immobilized at a density of ˜2,000-4,000 response units (RU) onto individual flow cells of a CM5 research-grade sensor chip (GE) by standard amine coupling chemistry, leaving one flow cell surface unmodified as the reference. Using a multi-cycle kinetics mode, a buffer blank and […] different concentrations of the PSMA dimer ranging from 1 nM to 81 nM in dPBS with 0.2% BSA were sequentially injected through each flow cell at 30 μL/min for 300 seconds followed by a 600 second dissociation phase. Regeneration was achieved by injection of 10 mM glycine pH 2.0 at a flow rate of 30 μL/min for 40 seconds followed by dPBS with 0.2% BSA buffer stabilization for 1 min.
(§5) Sensorgrams obtained from kinetic SPR measurements were analyzed by the double subtraction method. The signal from the reference flow cell was subtracted from the analyte binding response obtained from flow cells with captured ligands. The buffer blank response was then subtracted from analyte binding responses and the final double-referenced data were analyzed with Biacore T200 Evaluation software (2.0, GE), globally fitting data to derive kinetic parameters. All sensorgrams were fitted using a simple one-to-one binding model.

[4] = target: T4, mIgG Fc-cyno PSMA ECD (cynomolgus monkey); assay: as above
T4 construct: Called PSMA dimer in the SPR method; also called mFc-Cyno PSMA ECD; murine Fc-tagged cyno PSMA ECD
T4 chain: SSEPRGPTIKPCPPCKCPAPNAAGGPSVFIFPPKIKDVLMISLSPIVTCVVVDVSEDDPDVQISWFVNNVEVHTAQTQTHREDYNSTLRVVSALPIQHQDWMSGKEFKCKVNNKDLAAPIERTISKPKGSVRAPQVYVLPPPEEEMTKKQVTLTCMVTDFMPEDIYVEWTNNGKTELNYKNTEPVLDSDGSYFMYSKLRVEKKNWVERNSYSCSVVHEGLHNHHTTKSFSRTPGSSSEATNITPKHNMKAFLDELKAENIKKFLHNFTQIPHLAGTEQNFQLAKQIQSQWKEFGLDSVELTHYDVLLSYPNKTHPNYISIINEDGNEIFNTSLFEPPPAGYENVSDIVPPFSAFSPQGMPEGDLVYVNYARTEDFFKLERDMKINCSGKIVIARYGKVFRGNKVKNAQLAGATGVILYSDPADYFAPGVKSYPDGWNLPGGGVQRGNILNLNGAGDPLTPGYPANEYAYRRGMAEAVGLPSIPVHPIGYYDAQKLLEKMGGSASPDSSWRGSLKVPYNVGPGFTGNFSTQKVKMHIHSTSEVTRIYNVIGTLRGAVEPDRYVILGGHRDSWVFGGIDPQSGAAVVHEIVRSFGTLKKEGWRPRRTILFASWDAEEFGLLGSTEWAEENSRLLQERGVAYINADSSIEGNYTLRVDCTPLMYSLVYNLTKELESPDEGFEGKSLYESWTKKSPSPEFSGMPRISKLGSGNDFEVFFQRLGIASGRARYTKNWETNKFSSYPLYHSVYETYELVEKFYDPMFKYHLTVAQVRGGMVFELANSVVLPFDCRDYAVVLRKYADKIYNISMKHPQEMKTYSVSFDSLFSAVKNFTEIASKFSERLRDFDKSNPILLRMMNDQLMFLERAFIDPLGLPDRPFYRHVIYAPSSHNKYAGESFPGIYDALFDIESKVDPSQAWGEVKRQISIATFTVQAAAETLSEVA
Procedure: as §4, §5

[5] = target: T2, recombinant human FcRn/b2M complex; assay: SPR at pH 6.0, hFcRn/b2M amine-coupled, construct 1-81 nM as analyte, steady-state affinity model
Procedure: as §1, §2, §3

T1 sequence (Q04609 other isoform, or with tags, fused parts or gaps): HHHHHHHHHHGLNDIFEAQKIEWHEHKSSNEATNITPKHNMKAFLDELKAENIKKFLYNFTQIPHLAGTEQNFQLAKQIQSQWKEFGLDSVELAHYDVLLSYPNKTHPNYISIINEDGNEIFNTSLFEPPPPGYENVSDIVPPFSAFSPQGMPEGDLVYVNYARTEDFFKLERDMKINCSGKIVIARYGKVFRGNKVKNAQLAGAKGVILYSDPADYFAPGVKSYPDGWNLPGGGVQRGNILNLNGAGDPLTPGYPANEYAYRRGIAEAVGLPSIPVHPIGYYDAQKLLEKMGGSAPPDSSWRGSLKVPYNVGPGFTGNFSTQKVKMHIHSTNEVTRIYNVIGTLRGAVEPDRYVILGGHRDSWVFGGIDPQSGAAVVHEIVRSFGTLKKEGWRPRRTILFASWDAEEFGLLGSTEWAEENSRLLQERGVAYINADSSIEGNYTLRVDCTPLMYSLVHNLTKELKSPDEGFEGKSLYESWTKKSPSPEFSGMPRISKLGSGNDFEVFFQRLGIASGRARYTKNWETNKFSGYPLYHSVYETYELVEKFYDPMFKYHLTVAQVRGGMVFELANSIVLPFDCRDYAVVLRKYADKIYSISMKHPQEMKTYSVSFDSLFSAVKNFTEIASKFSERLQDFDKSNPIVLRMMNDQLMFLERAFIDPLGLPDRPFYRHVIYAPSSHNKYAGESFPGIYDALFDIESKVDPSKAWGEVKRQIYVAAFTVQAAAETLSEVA

B1: PSMA01107 Anti-PSMA scFv x Fc x linker x Anti CD3 scFv; Anti PSMA scFv x Fc (bispecific antibody)
chain 1: QVQLVQSGAEVKKPGASVKVSCKASGYTFTDYYMHWVRQAPGQGLEWMGYFNPYNDYTRYAQKFQGRVTMTRDTSTSTVYMELSSLRSEDTAVYYCARSDGYYDAMDYWGQGTTVTVSSGGGGSGGGGSGGGGSGGGGSDIQMTQSPSSLSASVGDRVTITCRASKSISKYLAWYQQKPGKAPKLLIHSGSSLESGVPSRFSGSGSGTEFTLTISSLQPDDFATYYCQQHIEYPWTFGQGTKVEIKEPKSSDKTHTCPPCPAPPAAAPSVFLFPPKPKDTLMISRTPEVTCVVVDVSHEDPEVKFNWYVDGVEVHNAKTKPREEQYNSTYRVVSVLTVLHQDWLNGKEYKCAVSNKALPAPIEKTISKAKGQPREPQVYTLPPSRDELTKNQVSLWCLVKGFYPSDIAVEWESNGQPENNYKTTPPVLDSDGSFFLYSKLTVDKSRWQQGNVFSCSVMHEALHNHYTQKSLSLSPGGGGSPSQVQLVQSGAEVKKPGASVKVSCKASGYTFTRSTMHWVRQAPGQGLEWIGYINPSSAYTNYAQKFQGRVTLTADKSTSTAYMELSSLRSEDTAVYYCASPQVHYDYNGFPYWGQGTLVTVSSGGGGSGGGGSGGGGSGGGGSDIQMTQSPSSLSASVGDRVTITCRASSSVSYMNWYQQKPGKAPKRWIYDSSKLASGVPSRFSGSGSGTDFTLTISSLQPEDFATYYCQQWSRNPPTFGQGTKVEIKRS
chain 2: QVQLVQSGAEVKKPGASVKVSCKASGYTFTDYYMHWVRQAPGQGLEWMGYFNPYNDYTRYAQKFQGRVTMTRDTSTSTVYMELSSLRSEDTAVYYCARSDGYYDAMDYWGQGTTVTVSSGGGGSGGGGSGGGGSGGGGSDIQMTQSPSSLSASVGDRVTITCRASKSISKYLAWYQQKPGKAPKLLIHSGSSLESGVPSRFSGSGSGTEFTLTISSLQPDDFATYYCQQHIEYPWTFGQGTKVEIKEPKSSDKTHTCPPCPAPPAAAPSVFLFPPKPKDTLMISRTPEVTCVVVDVSHEDPEVKFNWYVDGVEVHNAKTKPREEQYNSTYRVVSVLTVLHQDWLNGKEYKCAVSNKALPAPIEKTISKAKGQPREPQVYTLPPSRDELTKNQVSLSCAVKGFYPSDIAVEWESNGQPENNYKTTPPVLDSDGSFFLVSKLTVDKSRWQQGNVFSCSVMHEALHNHYTQKSLSLSPG
notes: Heterodimer, bivalent for PSMA and monovalent for CD3 (VH-VL scFv at the C-terminus); also called PSMA1107
[1]
  Kd: 2.6 nM
[2]
  Kd: 47 nM
[3]
  Kd: 3 nM
[4]
  Kd: 4.4 nM
[5]
  Kd: 59 nM

B2: PSMA01108 Anti-PSMA scFv x Fc x linker x Anti CD3 scFv; Anti PSMA scFv x Fc (bispecific antibody)
chain 1: QVQLVQSGAEVKKPGASVKVSCKASGYTFTDYYMHWVRQAPGQGLEWMGYFNPYNDYTRYAQKFQGRVTMTRDTSTSTVYMELSSLRSEDTAVYYCARSDGYYDAMDYWGQGTTVTVSSGGGGSGGGGSGGGGSGGGGSDIQMTQSPSSLSASVGDRVTITCRASKSISKYLAWYQQKPGKAPKLLIHSGSSLESGVPSRFSGSGSGTEFTLTISSLQPDDFATYYCQQHIEYPWTFGQGTKVEIKEPKSSDKTHTCPPCPAPPAAAPSVFLFPPKPKDTLMISRTPEVTCVVVDVSHEDPEVKFNWYVDGVEVHNAKTKPREEQYNSTYRVVSVLTVLHQDWLNGKEYKCAVSNKALPAPIEKTISKAKGQPREPQVYTLPPSRDELTKNQVSLWCLVKGFYPSDIAVEWESNGQPENNYKTTPPVLDSDGSFFLYSKLTVDKSRWQQGNVFSCSVMHEALHNHYTQKSLSLSPGGGGSPSDIQMTQSPSSLSASVGDRVTITCRASSSVSYMNWYQQKPGKAPKRWIYDSSKLASGVPSRFSGSGSGTDFTLTISSLQPEDFATYYCQQWSRNPPTFGQGTKVEIKGGGGSGGGGSGGGGSGGGGSQVQLVQSGAEVKKPGASVKVSCKASGYTFTRSTMHWVRQAPGQGLEWIGYINPSSAYTNYAQKFQGRVTLTADKSTSTAYMELSSLRSEDTAVYYCASPQVHYDYNGFPYWGQGTLVTVSS
chain 2: B1 chain 2
notes: also called PSMA1108; PSAM01108
[2]
  Kd: 19 nM
[5]
  Kd: 27 nM
